Measured values reported in patent US20060035242A1.

target: T1, mouse pathogenic prion protein PrP^Sc (RML, in infected Balb-c mouse brain homogenate) (mouse), P04925; experiment: not given
T1 sequence (P04925 23-230 limits assumed): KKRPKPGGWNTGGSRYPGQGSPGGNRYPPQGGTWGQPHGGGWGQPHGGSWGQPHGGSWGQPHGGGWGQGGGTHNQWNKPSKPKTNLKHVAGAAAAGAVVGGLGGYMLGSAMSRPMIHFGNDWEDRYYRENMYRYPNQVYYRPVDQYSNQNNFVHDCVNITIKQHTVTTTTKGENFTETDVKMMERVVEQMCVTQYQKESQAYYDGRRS

Compared with GGGKARPKPGG (modifications not checked) [peptide reagent of SEQ ID NO:105], GGGKKAPKPGG (modifications not checked) [peptide reagent of SEQ ID NO:106] is higher in ELISA A405 nm: 0.256 A405 nm for the first, 0.268 A405 nm for the second.

GGGKKRPAPGG (modifications not checked) [peptide reagent of SEQ ID NO:107] showed an ELISA A405 nm of 0.578 A405 nm.

target: T1, mouse pathogenic prion protein PrP^Sc …; experiment: bead pull-down from PrPSc+ mouse brain homogenate; ELISA

First: GGGKPSKPK (modifications not checked) [peptide reagent of SEQ ID NO:80]
Second: GGGKKRPKPGGGKKRPKPGG (modifications not checked) [peptide reagent of SEQ ID NO:72 (tandem repeat)]
The ELISA A405 nm of the first is lower: 0.225 A405 nm for the first, 0.522 A405 nm for the second.

Compared with KKKAGAAAAGAVVGGLGG (modifications not checked) [peptide reagent of SEQ ID NO:65], GGGAGAAAAGAVVGGLGG (modifications not checked) [peptide reagent of SEQ ID NO:56] is lower in ELISA A405 nm: 0.635 A405 nm for the first, 0.313 A405 nm for the second.

First: GGGNKPSKPK (modifications not checked) [peptide reagent of SEQ ID NO:79]
Second: GGGKKKKKKKK (modifications not checked) [peptide reagent of SEQ ID NO:85]
The ELISA A405 nm of the first is lower: 0.24 A405 nm for the first, 0.53 A405 nm for the second.

Going from GGGGPKRKGPK (modifications not checked) [peptide reagent of SEQ ID NO:73] to GGGKKRAKAGG (modifications not checked) [peptide reagent of SEQ ID NO:98], the ELISA A405 nm rises from 1.06 A405 nm to 1.46 A405 nm.
